Source: article PMC11230385

Molecular target: T1, Aquaporin Z with a C-terminal Strep-tag II (AqpZ-STII) (Escherichia coli), P60844
T1 chain: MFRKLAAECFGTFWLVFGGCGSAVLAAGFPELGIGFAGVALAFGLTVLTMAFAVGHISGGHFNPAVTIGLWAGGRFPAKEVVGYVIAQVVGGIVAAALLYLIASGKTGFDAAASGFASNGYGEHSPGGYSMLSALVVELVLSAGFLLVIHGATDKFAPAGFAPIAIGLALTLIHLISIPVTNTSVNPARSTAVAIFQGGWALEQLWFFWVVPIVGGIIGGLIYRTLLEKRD
Assay: native MS
Conditions: remark: other sources report otherwise

B1: Aquaporin Z with a C-terminal Strep-tag II (AqpZ-STII), P60844 1-231 (natural protein)
chain: T1 chain
Question: B1 was tested. Which stoichiometry N did it give?
Answer: 4
